The target in assay [1] is HLA-B*35:01. Description: IEDB peptide-MHC binding, purified MHC/competitive/fluorescence; ≥ and ≤ were set here for values at or beyond the usual limits of such assays. The settings on record: source organism: Homo sapiens.
Assay [2] concerns the target HLA-B*53:01. The description is as above. The settings on record: source organism: Homo sapiens.
Assay [3] addresses HLA-A*01:01. The description is as above. The settings on record: source organism: Homo sapiens.
Assay [4] deals with HLA-B*44:03. The description is as above. Conditions: source organism: Homo sapiens.
Assay [5] deals with HLA-A*68:02. Described as above. The settings on record: source organism: Homo sapiens.
Assay [6] addresses HLA-A*25:01. Described as above. Conditions: source organism: Homo sapiens.
Assay [7] deals with HLA-A*24:02. The assay is described as above. Conditions: source organism: Homo sapiens.
The target in assay [8] is HLA-B*37:01. Described as above. The settings on record: source organism: Homo sapiens.
In assay [9] the target is HLA-A*11:01. The assay is described as above. Conditions: source organism: Homo sapiens.
Assay [10] has as its target HLA-A*02:01. The assay is described as above. The settings on record: source organism: Homo sapiens.
The target of assay [11] is HLA-B*18:01. Described as above. Conditions: source organism: Homo sapiens.
The target of assay [12] is HLA-A*29:02. The description is as above. The settings on record: source organism: Homo sapiens.
The target in assay [13] is HLA-B*40:02. Described as above. The settings on record: source organism: Homo sapiens.
The target of assay [14] is HLA-B*14:02. The description is as above. The settings on record: source organism: Homo sapiens.
The target of assay [15] is HLA-B*58:01. The assay is described as above. Conditions: source organism: Homo sapiens.
For assay [16], the target named is HLA-A*31:01. The description is as above. Conditions: source organism: Homo sapiens.
The target of assay [17] is HLA-B*51:01. Described as above. Conditions: source organism: Homo sapiens.
The target of assay [18] is HLA-B*08:01. Described as above. The settings on record: source organism: Homo sapiens.
Assay [19] has as its target HLA-A*03:01. The assay is described as above. Conditions: source organism: Homo sapiens.
Assay [20] has as its target HLA-B*07:02. The description is as above. The settings on record: source organism: Homo sapiens.
For assay [21], the target named is HLA-A*24:02. Description: IEDB peptide-MHC binding, purified MHC/competitive/fluorescence; filed as Kd, often an IC50 or EC50 that approximates it; ≥ and ≤ were set here for values at or beyond the usual limits of such assays. Conditions: source organism: Entamoeba histolytica.
Assay [22] addresses HLA-A*32:07. The description is as above. The settings on record: source organism: Entamoeba histolytica.
The target in assay [23] is HLA-C*14:02. The assay is described as above. The settings on record: source organism: Entamoeba histolytica.
Assay [24] concerns the target HLA-C*06:02. The assay is described as above. Conditions: source organism: Entamoeba histolytica.
The target of assay [25] is HLA-C*04:01. The description is as above. Conditions: source organism: Entamoeba histolytica.
In assay [26] the target is HLA-B*45:06. The description is as above.
Assay [27] has as its target HLA-B*15:42. Described as above.
Assay [28] addresses HLA-B*83:01. The assay is described as above.
Assay [29] deals with HLA-A*32:15. Described as above. The settings on record: source organism: Entamoeba histolytica.
Assay [30] concerns the target HLA-A*24:03. The assay is described as follows: IEDB peptide-MHC binding, purified MHC/direct/fluorescence; filed as Kd, often an IC50 or EC50 that approximates it; ≥ and ≤ were set here for values at or beyond the usual limits of such assays. The settings on record: source organism: Entamoeba histolytica HM-1:IMSS.
The target in assay [31] is HLA-B*15:01. Description: IEDB peptide-MHC binding, purified MHC/competitive/fluorescence; filed as Kd, often an IC50 or EC50 that approximates it; ≥ and ≤ were set here for values at or beyond the usual limits of such assays. The settings on record: source organism: Mycobacterium tuberculosis C.
Assay [32] has as its target HLA-A*26:03. The description is as above. Conditions: source organism: Mycobacterium tuberculosis C.
Assay [33] addresses HLA-A*02:06. Described as above. The settings on record: source organism: Mycobacterium tuberculosis C.
In assay [34] the target is HLA-B*27:05. The assay is described as above. Conditions: source organism: Mycobacterium tuberculosis C.
In assay [35] the target is HLA-A*01:01. Description: IEDB peptide-MHC binding, purified MHC/direct/fluorescence; filed as Kd, often an IC50 or EC50 that approximates it; ≥ and ≤ were set here for values at or beyond the usual limits of such assays. Conditions: source organism: Mycobacterium tuberculosis.
The target in assay [36] is HLA-B*15:17. The assay is described as above. The settings on record: source organism: Mycobacterium tuberculosis.
Assay [37] has as its target HLA-A*68:02. The assay is described as above. Conditions: source organism: Mycobacterium tuberculosis.
The target in assay [38] is HLA-B*40:01. The assay is described as above. Conditions: source organism: Mycobacterium tuberculosis.
The target of assay [39] is HLA-B*46:01. Described as above. The settings on record: source organism: Mycobacterium tuberculosis.
In assay [40] the target is HLA-A*11:01. Described as above. Conditions: source organism: Mycobacterium tuberculosis.
Assay [41] concerns the target HLA-B*18:01. The assay is described as above. The settings on record: source organism: Mycobacterium tuberculosis.
The target in assay [42] is HLA-B*57:01. The assay is described as above. Conditions: source organism: Mycobacterium tuberculosis.
Assay [43] deals with HLA-B*48:01. The description is as above. Conditions: source organism: Mycobacterium tuberculosis.
Assay [44] concerns the target HLA-B*08:03. The assay is described as above. Conditions: source organism: Mycobacterium tuberculosis str. Haarlem.
Assay [45] concerns the target HLA-A*69:01. The description is as above. Conditions: source organism: Mycobacterium tuberculosis.
Assay [46] deals with HLA-B*08:02. Described as above. Conditions: source organism: Mycobacterium tuberculosis str. Haarlem.
The target in assay [47] is HLA-B*58:01. The description is as above. Conditions: source organism: Mycobacterium tuberculosis.
For assay [48], the target named is HLA-A*31:01. The assay is described as above. Conditions: source organism: Mycobacterium tuberculosis.
Assay [49] deals with HLA-B*08:01. The description is as above. Conditions: source organism: Mycobacterium tuberculosis str. Haarlem.
Assay [50] concerns the target HLA-A*26:02. The description is as above. Conditions: source organism: Mycobacterium tuberculosis str. Haarlem.
Assay [51] has as its target HLA-B*07:02. Described as above. Conditions: source organism: Mycobacterium tuberculosis.
[52] abbreviates: source organism: Entamoeba histolytica.
The mark [53] stands for this setting: source organism: Mycobacterium tuberculosis C.

pIC50, pKd: −log10 of the molar value.

For orientation: pIC50 means −log10 of the IC50, conventionally taken in molar units. What is called pKd is the negative decadic logarithm of the Kd, by convention in mol/L. A higher pKd goes with a low Kd.

Take YPDPVIKV: the pIC50 in [1] is 6.13; in assay [2], at most 4.70; in assay [3] it was at most 4.70; in [4], at most 4.70; in assay [5] it was 6.50; in assay [6], at most 4.70. Further, the pIC50 was at most 4.70 in assay [7]; at most 4.70 in assay [8]; at most 4.70 in [9]; 5.30 in assay [10]; 6.53 in assay [11]; at most 4.70 in assay [12]. The pIC50 was 6.27 in assay [13]; at most 4.70 in [14]; at most 4.70 in assay [15]; at most 4.70 in assay [16]; at most 4.70 in [17]; at most 4.70 in [18]. Also, the pIC50 in assay [19] is at most 4.70; in [20], 5.84.
Take SYMSTFPLF: the pKd in [21] is at least 10.00; in assay [22], 9.30; in assay [23], at least 10.00; in assay [24], 6.21; in [25], 7.05; in assay [26] (setting [52]) it was at most 5.30. The pKd in assay [27] (setting [52]) is at most 5.30; in assay [28] (setting [52]), at most 5.30; in [29] it was 6.11; in assay [30], at least 9.00.
Turning to ALFDRPAFK, the pKd in assay [31] was at most 4.70; in assay [32], at most 4.70; in assay [33] it was 6.49; in assay [26] (setting [53]), at most 5.30; in assay [27] (setting [53]), at most 5.30; in [28] (setting [53]), at most 5.30. In addition, the pKd in assay [34], in [35], in assay [36], in [37], in [38] and in [39] was at most 4.70 in each case. Further, the pKd was 7.62 in assay [40]; at most 4.70 in [41]; at most 4.70 in assay [42]; at most 4.70 in assay [43]; at most 4.70 in assay [44]; at most 4.70 in [45]. Also, the pKd in assay [46] was at most 4.70; in [47], at most 4.70; in assay [48], 8.33; in assay [49] it was at most 4.70; in [50] it was at most 4.70; in [51], at most 4.70.

(Values after the Immune Epitope Database (IEDB).)
